Laboratory results as given in patent US20250295772A1 (ABATA THERAPEUTICS, published 2025).

Biological target: T1, preproinsulin 73-90 peptide complexed with HLA-DRB1*04:01 (human, UniProt P01903 26-254; P01911 30-266)
T1 MHC II alpha: not shown
T1 MHC II beta: not shown
T1 peptide: GAGSLQPLALEGSLQKRG
Assay: cell-based or functional assay

B1: TCR-L (TCR, V domains shown)
V domain 1: RKEVEQDPGPFNVPEGATVAFNCTYSNSASQSFFWYRQDCRKEPKLLMSVYSSGNEDGRFTAQLNRASQYISLLIRDSKLSDSATYLCVVLRNSGNTPLVFGKGTRLSVIA
V domain 2: DAGITQSPRHKVTETGTPVTLRCHQTENHRYMYWYRQDPGHGLRLIHYSYGVKDTDKGEVSDGYSVSRSKTEDFLLTLESATSSQTSVYFCAIKPGQGNRGEQFFGPGTRLTVLE
- EC50 (nM) of CD69 upregulation, conventional CD4+ T cells + BLS-DRB1*04:01 cells, peptide titrated: 498 nM

B2: TCR-K (TCR)
TCR alpha: RGNGKNQVEQSPQSLIILEGKNCTLQCNYTVSPFSNLRWYKQDTGRGPVSLTIMTFSENTKSNGRYTATLDADTKQSSLHITASQLSDSASYICVVSASSNTGKLIFGQGTTLQVKPDIQNPDPAVYQLRDSKSSDKSVCLFTDFDSQTNVSQSKDSDVYITDKTVLDMRSMDFKSNSAVAWSNKSDFACANAFNNSIIPEDTFFPSPESSCDVKLVEKSFETDTNLNFQNLSVIGFRILLLKVAGFNLLMTLRLWSS
TCR beta: DAGVIQSPRHEVTEMGQEVTLRCKPISGHNSLFWYRQTMMRGLELLIYFNNNVPIDDSGMPEDRFSAKMPNASFSTLKIQPSEPRDSAVYFCASSGQLVAYNEQFFGPGTRLTVLEDLKNVFPPEVAVFEPSEAEISHTQKATLVCLATGFYPDHVELSWWVNGKEVHSGVSTDPQPLKEQPALNDSRYCLSSRLRVSATFWQNPRNHFRCQVQFYGLSENDEWTQDRAKPVTQIVSAEAWGRADCGFTSESYQQGVLSATILYEILLGKATLYAVLVSALVLMAMVKRKDSRG
- EC50 (nM) of CD69 upregulation, conventional CD4+ T cells + BLS-DRB1*04:01 cells, peptide titrated: 47.7 nM

B3: TCR-K DS (TCR)
TCR alpha: RGNGKNQVEQSPQSLIILEGKNCTLQCNYTVSPFSNLRWYKQDTGRGPVSLTIMTFSENTKSNGRYTATLDADTKQSSLHITASQLSDSASYICVVSASSNTGKLIFGQGTTLQVKPDIQNPDPAVYQLRDSKSSDKSVCLFTDFDSQTNVSQSKDSDVYITDKCVLDMRSMDFKSNSAVAWSNKSDFACANAFNNSIIPEDTFFPSPESSCDVKLVEKSFETDTNLNFQNLSVIGFRILLLKVAGFNLLMTLRLWSS
TCR beta: DAGVIQSPRHEVTEMGQEVTLRCKPISGHNSLFWYRQTMMRGLELLIYFNNNVPIDDSGMPEDRFSAKMPNASFSTLKIQPSEPRDSAVYFCASSGQLVAYNEQFFGPGTRLTVLEDLKNVFPPEVAVFEPSEAEISHTQKATLVCLATGFYPDHVELSWWVNGKEVHSGVCTDPQPLKEQPALNDSRYCLSSRLRVSATFWQNPRNHFRCQVQFYGLSENDEWTQDRAKPVTQIVSAEAWGRADCGFTSESYQQGVLSATILYEILLGKATLYAVLVSALVLMAMVKRKDSRG
- EC50 (nM) of CD69 upregulation, conventional CD4+ T cells + BLS-DRB1*04:01 cells, peptide titrated: 19.1 nM

B4: TCR-M (TCR, V domains shown)
V domain 1: DQQVKQNSPSLSVQEGRISILNCDYTNSMFDYFLWYKKYPAEGPTFLISISSIKDKNEDGRFTVFLNKSAKHLSLHIVPSQPGDSAVYFCAASAKTSGSRLTFGEGTQLTVNP
V domain 2: NAGVTQTPKFRILKIGQSMTLQCTQDMNHNYMYWYRQDPGMGLKLIYYSVGAGITDKGEVPNGYNVSRSTTEDFPLRLELAAPSQTSVYFCASRGGIQETQYFGPGTRLLVLE
- EC50 (nM) of CD69 upregulation, conventional CD4+ T cells + BLS-DRB1*04:01 cells, peptide titrated: 244 nM

B5: TCR-O (TCR, V domains shown)
V domain 1: KQEVTQIPAALSVPEGENLVLNCSFTDSAIYNLQWFRQDPGKGLTSLLLIQSSQREQTSGRLNASLDKSSGRSTLYIAASQPGDSATYLCAVTGMDSSYKLIFGSGTRLLVRP
V domain 2: DAEITQSPRHKITETGRQVTLACHQTWNHNNMFWYRQDLGHGLRLIHYSYGVHDTNKGEVSDGYSVSRSNTEDLPLTLESAASSQTSVYFCASSEGGSWGYTFGSGTRLTVVE
- EC50 (nM) of CD69 upregulation, conventional CD4+ T cells + BLS-DRB1*04:01 cells, peptide titrated: 6.34 nM

B6: TCR-S DS (TCR, V domains shown)
V domain 1: QKEVEQDPGPLSVPEGAIVSLNCTYSNSAFQYFMWYRQYSRKGPELLMYTYSSGNKEDGRFTAQVDKSSKYISLFIRDSQPSDSATYLCAMSEYSGYALNFGKGTSLLVTP
V domain 2: GITQSPKYLFRKEGQNVTLSCEQNLNHDAMYWYRQDPGQGLRLIYYSQIVNDFQKGDIAEGYSVSREKKESFPLTVTSAQKNPTAFYLCASSNRDEQYFGPGTRLTVTE
- EC50 (nM) of CD69 upregulation, conventional CD4+ T cells + BLS-DRB1*04:01 cells, peptide titrated: 10000 nM

B7: TCR-Q (TCR, V domains shown)
V domain 1: KDQVFQPSTVASSEGAVVEIFCNHSVSNAYNFFWYLHFPGCAPRLLVKGSKPSQQGRYNMTYERFSSSLLILQVREADAAVYYCAVGDTGGFKTIFGAGTRLFVKA
V domain 2: DSGVTQTPKHLITATGQRVTLRCSPRSGDLSVYWYQQSLDQGLQFLIHYYNGEERAKGNILERFSAQQFPDLHSELNLSSLELGDSALYFCASSEIAGFSTDTQYFGPGTRLTVLE
- EC50 (nM) of CD69 upregulation, conventional CD4+ T cells + BLS-DRB1*04:01 cells, peptide titrated: 409 nM

B8: TCR-N (TCR, V domains shown)
V domain 1: GESVGLHLPTLSVQEGDNSIINCAYSNSASDYFIWYKQESGKGPQFIIDIRSNMDKRQGQRVTVLLNKTVKHLSLQIAATQPGDSAVYFCAEISKTSYDKVIFGPGTSLSVIP
V domain 2: NAGVTQTPKFRILKIGQSMTLQCAQDMNHNYMYWYRQDPGMGLKLIYYSVGAGITDKGEVPNGYNVSRSTTEDFPLRLELAAPSQTSVYFCASSYGPGGRNTIYFGEGSWLTVVE
- EC50 (nM) of CD69 upregulation, conventional CD4+ T cells + BLS-DRB1*04:01 cells, peptide titrated: 28.2 nM
